“And” between values parts separate entries of the source, which are not always exact repeats. Equal values may be shown once.
B1: C4b-binding protein alpha chain (C4BPα) (natural protein, human, UniProt P04003 49-597, looked up)
chain: NCGPPPTLSFAAPMDITLTETRFKTGTTLKYTCLPGYVRSHSTQTLTCNSDGEWVYNTFCIYKRCRHPGELRNGQVEIKTDLSFGSQIEFSCSEGFFLIGSTTSRCEVQDRGVGWSHPLPQCEIVKCKPPPDIRNGRHSGEENFYAYGFSVTYSCDPRFSLLGHASISCTVENETIGVWRPSPPTCEKITCRKPDVSHGEMVSGFGPIYNYKDTIVFKCQKGFVLRGSSVIHCDADSKWNPSPPACEPNSCINLPDIPHASWETYPRPTKEDVYVVGTVLRYRCHPGYKPTTDEPTTVICQKNLRWTPYQGCEALCCPEPKLNNGEITQHRKSRPANHCVYFYGDEISFSCHETSRFSAICQGDGTWSPRTPSCGDICNFPPKIAHGHYKQSSSYSFFKEEIIYECDKGYILVGQAKLSCSYSHWSAPAPQCKALCRKPELVNGRLSVDKDQYVEPENVTIQCDSGYGVVGPQSITCSGNRTWYPEVPKCEWETPEGCEQVLTGKRLMQCLPNPEDVKMALEVYKLSLEIEQLELQRDSARQSTLDKEL
modifications: N-glycans at N221, N506, N528
notes: eight CCP domains and the C-terminal oligomerization core; without the signal peptide; Disulfide-linked to the other C4BPα chains and to C4BPβ in the assembly; also called α chain; source: endogenous, pooled healthy donor serum (SEC LC-MS)
B2: C4b-binding protein beta chain (C4BPβ) (natural protein, human, UniProt P20851 18-252, looked up)
chain: SDAEHCPELPPVDNSIFVAKEVEGQILGTYVCIKGYHLVGKKTLFCNASKEWDNTTTECRLGHCPDPVLVNGEFSSSGPVNVSDKITFMCNDHYILKGSNRSQCLEDHTWAPPFPICKSRDCDPPGNPVHGYFEGNNFTLGSTISYYCEDRYYLVGVQEQQCVDGEWSSALPVCKLIQEAPKPECEKALLAFQESKNLCEAMENFMQQLKESGMTMEELKYSLELKKAELKAKLL
modifications: N-glycans at N64, N71, N98, N117, N154
notes: three CCP domains; N-terminus S18 after the propeptide cleavage; Disulfide-linked to C4BPα in the assembly; also called β chain; source: endogenous, pooled healthy donor serum (SEC LC-MS)

How the values were obtained:
[1] = biological target: B2; experiment: native MS; Orbitrap charge detection MS (CDMS) of native C4BP, 1 M ammonium acetate pH 7.4, ~1 μM; details: both partners purified
[2] = biological target: the molecule itself; experiment: cross-linking; C4BP 0.5 g/l in PBS pH 7.4, 1 mM DSS or 5 mM DMTMM, 30 min, room temperature; SDS-PAGE bands digested with trypsin, LC-MS/MS; cross-links kept if found in two of three replicates
[3] = biological target: B1; experiment: as above; details: both partners purified
[4] = biological target: T1, vitamin K-dependent protein S (ProS) (human, UniProt P07225 42-676, N-glycans at N499, N509, N530); experiment: as above; details: both partners purified
T1 construct: vitamin K-dependent protein S (ProS), human serum protein; GLA domain, four EGF-like domains (E1-E4), two laminin G-like domains (LG1-2); without signal peptide and propeptide; source: purified from pooled plasma of more than 16 healthy donors together with C4BP (bought: Complement Technology, Inc); endogenous, pooled healthy donor serum (SEC LC-MS)
T1 sequence (looked up): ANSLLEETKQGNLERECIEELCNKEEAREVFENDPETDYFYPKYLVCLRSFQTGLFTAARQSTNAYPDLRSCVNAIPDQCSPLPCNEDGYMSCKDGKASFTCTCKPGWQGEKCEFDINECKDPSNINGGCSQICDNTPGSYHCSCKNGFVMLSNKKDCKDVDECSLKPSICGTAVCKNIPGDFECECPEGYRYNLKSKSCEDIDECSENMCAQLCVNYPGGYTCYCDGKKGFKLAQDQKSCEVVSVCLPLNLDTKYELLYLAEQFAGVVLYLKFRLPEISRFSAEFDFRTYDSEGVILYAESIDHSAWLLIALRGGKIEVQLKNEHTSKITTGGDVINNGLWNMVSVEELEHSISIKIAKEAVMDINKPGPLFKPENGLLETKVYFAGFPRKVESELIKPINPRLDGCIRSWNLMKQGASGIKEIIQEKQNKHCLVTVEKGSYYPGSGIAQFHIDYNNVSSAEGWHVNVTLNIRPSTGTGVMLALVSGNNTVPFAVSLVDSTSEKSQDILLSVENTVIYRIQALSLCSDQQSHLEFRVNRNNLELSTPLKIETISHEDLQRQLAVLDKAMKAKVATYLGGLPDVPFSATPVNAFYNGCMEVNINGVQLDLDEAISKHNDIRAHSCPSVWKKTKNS

[5] = biological target: T2, C4b-binding protein beta chain (C4BPβ) (Homo sapiens (Human), UniProt P20851, N-glycans at N64, N71, N98, N117, N154); experiment: native CDMS, mass photometry, XL-MS and HS-AFM of co-purified serum C4BP complex; C4BPβ present only disulfide-linked to C4BPα in the serum C4BP assembly (α7β1/α6β1), co-purified with ProS; the non-covalent complex dissociates at pH 2 or in urea
T2 chain: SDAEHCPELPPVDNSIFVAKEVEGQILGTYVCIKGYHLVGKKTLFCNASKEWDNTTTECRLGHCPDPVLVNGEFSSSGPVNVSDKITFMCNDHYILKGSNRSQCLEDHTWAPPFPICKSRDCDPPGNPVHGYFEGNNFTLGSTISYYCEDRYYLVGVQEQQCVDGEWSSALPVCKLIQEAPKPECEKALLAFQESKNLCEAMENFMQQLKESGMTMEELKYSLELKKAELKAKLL

Question: For B1, which “stoichiometry N” value [1] is on record?
Answer: 7 C4BPα chains per C4BPβ chain and 6 C4BPα chains per C4BPβ chain

Question: Does B1 bind [2]?
Answer: binds

Question: What does the source list for B2?
Answer: binding result [3]: binds; binding result [4]: binds

B3: vitamin K-dependent protein S (ProS) (protein)
chain: ANSLLEETKQGNLERECIEELCNKEEAREVFENDPETDYFYPKYLVCLRSFQTGLFTAARQSTNAYPDLRSCVNAIPDQCSPLPCNEDGYMSCKDGKASFTCTCKPGWQGEKCEFDINECKDPSNINGGCSQICDNTPGSYHCSCKNGFVMLSNKKDCKDVDECSLKPSICGTAVCKNIPGDFECECPEGYRYNLKSKSCEDIDECSENMCAQLCVNYPGGYTCYCDGKKGFKLAQDQKSCEVVSVCLPLNLDTKYELLYLAEQFAGVVLYLKFRLPEISRFSAEFDFRTYDSEGVILYAESIDHSAWLLIALRGGKIEVQLKNEHTSKITTGGDVINNGLWNMVSVEELEHSISIKIAKEAVMDINKPGPLFKPENGLLETKVYFAGFPRKVESELIKPINPRLDGCIRSWNLMKQGASGIKEIIQEKQNKHCLVTVEKGSYYPGSGIAQFHIDYNNVSSAEGWHVNVTLNIRPSTGTGVMLALVSGNNTVPFAVSLVDSTSEKSQDILLSVENTVIYRIQALSLCSDQQSHLEFRVNRNNLELSTPLKIETISHEDLQRQLAVLDKAMKAKVATYLGGLPDVPFSATPVNAFYNGCMEVNINGVQLDLDEAISKHNDIRAHSCPSVWKKTKNS
modifications: N-glycans at N499, N509, N530
Question: Does B3 bind [5]?
Answer: binds

From publication PMC11251186, “Higher-order structure and proteoforms of co-occurring C4b-binding protein assemblies in human serum” (The EMBO Journal, 2024)
